Experimental data reported in the supplement of paper PMC9170038.

Test system: MS2 coat protein
Assay: apparent KD of MS2 coat protein; designed switch direction (-1 OFF switch, 1 ON switch): -1; higher = weaker reporter binding
Outline: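 Designed RNA switches with common flanks were made on Illumina chips by stalled E. coli RNA polymerase. Titration with SNAP-549-labelled MS2 coat protein doubled from 0.7 or 1.5 nM up to 3 µM. Apparent KD is each design's median over clusters after curve-fitting normalised fluorescence.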

[1] = input ligand: microRNA oligo, concentration not stated
[2] = Eterna round: R95, input ligand: microRNA oligo, concentration not stated
[3] = Eterna round: R95, input ligand: FMN 200 uM
[4] = Eterna round: R95, input ligand: none

Row | Sequence | apparent KD of MS2 coat protein (input ligand: FMN 200 uM) [nM] | apparent KD of MS2 coat protein [1] [nM] | apparent KD of MS2 coat protein (input ligand: none) [nM] | apparent KD of MS2 coat protein [2] [nM] | apparent KD of MS2 coat protein [3] [nM] | apparent KD of MS2 coat protein [4] [nM]
1 | GGCUGACAUGUAGGAUAUCUGCACGAUUAGUGCAGAGAAGGACAUGAGGAUCACCCAUGUAUAGCGACUUCGGUCGCAACAGCC [ENG1/2-A1] (Eterna round: R96, puzzle: Exclusion NG 1) | 155 | 31 | 40 | – | – | –
2 | CCGGUAUAGGAGGAUAUAGGAGUCGAUAGACACCUAGAAGGCCUGACAUGAGGAUCACCCAUGUGUCCUACCGG [Fiskers Ex 6 - 96] (puzzle: Exclusion 6) | – | – | – | 15.9 | – | –
3 | UUCGGGUCAGGAUAUUGUUAGUUUAGUUGUUUGUAUUAGUUCGAGAAGGGACAUGAGGAUCACCCAUGUGGUAA [Ex4 #81] (Eterna round: R97, puzzle: Exclusion 4) | 71.5 | – | 160 | – | – | –
4 | UAUUCUGCGCUCGUCUUAUACAUGAGGAUCACCCAUGUUCUCAAGGUCUUAUGUACUGACACGAAAGUGUUAGUAAU [AK-miRNA-r3-3] (Eterna round: R97, puzzle: Sensor, turn-off variant 1) | 36.3 | – | 41.6 | – | – | –
5 | GUGUGCAGAGGAUAUACAGAGGAAGAGAAGAGAAGAGAAGGACAUGAGGAUCACCCAUGUAGAAGGCUGAGUGU [Excluse me!! 19 - Jieux - Exclusion 2] (puzzle: Exclusion 2) | – | – | – | 30.2 | 33.7 | 31.6
6 | UUUAUAAUUUCAAUCUUCGCUGGCAAACUUACGCCAGCCACAUGAGGAUCACCCAUGUUUUUUGUUCGUUUUACUCU [Tetevea] (puzzle: Sensor v3, turn-off variant 2) | – | – | – | 64 | 18 | 22.5
7 | UAAAUAAAUGUAGGAUAUCUGCACGUUUAGUGCAGAGAAGGACAUGAGGAUCACCCAUGUAUAGUAGCUUCGGCUACAAAUAAU [ENG1-C2] (Eterna round: R96, puzzle: Exclusion NG 1) | 115 | 42.2 | 76.3 | – | – | –
8 | GUGUAGUCAGGAUAUACAUGAGGAUCACCCAUGUGAAUAAGAUAGAAUAAGAUAAAGUGUAGAAGGGAUAGUGU [Excluse me!!! 22 - Jieux - Exclusion 3] (puzzle: Exclusion 3) | – | – | – | 30.7 | – | –
9 | CAGUACUGAGGAUAUACAUGAGGAUCACCCAUGUGAGAGAUACUAGUGAGGUCGAUUAGUAGAAGGCGGUACUG [Mat X3R4 m5] (Eterna round: R97, puzzle: Exclusion 3) | 306 | – | 40.8 | – | – | –
10 | UUGAUACAUACCUCCAUAAACAUGAGGAUCACCCAUGUAAGUGAGGAUAUAGAUUGUUUAGUAUACUAGAAGGCACUUAGAUAU [JR_ExcNG3_Sub045] (Eterna round: R96, puzzle: Exclusion NG 3) | – | 9.11 | – | – | – | –
11 | AAGAACGUGCAAGGAUAUCUCCACCAAACCGGCAGAGAAGGUGCACAUGAGGAUCACCCAUGUGACCUAAAGCUCUUAUGAGCC [Raledigeen] (Eterna round: R96, puzzle: Exclusion NG 1) | 30.6 | 13.1 | 17.3 | – | – | –
12 | UUCCUACAUGAGGAUCACCCAUGUCAGGAUAUCUCCUCGUCGCCAAUGGGCGACGAAUAGAGAAGGGACAGGAA [Rerizaatra] (puzzle: Exclusion 1) | – | – | – | 13.1 | – | –
13 | UGCAGACGAGGAUAUAAACGAUAUAACAUGAGGAUCACCCAUGUACGAUCGAUAGAUCGUUUAGAAGGCGUCUGCU [E5/9-A3] (Eterna round: R97, puzzle: Exclusion 5) | 14.5 | – | 14.1 | – | – | –
14 | AUAAUGUAAGGAUAUCAGUCGUACAGCUGCGGCUGUACGACUGAGAAGGUACAUGAGGAUCACCCAUGUGGUCA [E4/9-A3] (Eterna round: R97, puzzle: Exclusion 4) | 324 | – | 694 | – | – | –
15 | CUUUUGUGAGGAUAUUAGUAGUAAAUAUAUAAAAUUACUACUGAGAAGGCACAUGAGGAUCACCCAUGUUCCUC [salish99_ex4_r3_055] (puzzle: Exclusion 4) | – | – | – | 36.2 | – | –
16 | GGCAUAAACGAGGAUAUCGUUACGGAAACGUAACGAGAAGGUGUAACAUGAGGAUCACCCAUGUUCCUCAAGCC [Mat - Exclusion 6 - Eli Mod - D59] (Eterna round: R96, puzzle: Exclusion 6) | 36.8 | 29.8 | 38 | – | – | –
17 | CGAGCUUUUUGCUCGUCUUACAUGAGGAUCACCCAUGUCGAGCGAGCGAGCGAGCGAAAGUUUGUUUGUUUGUUUGA [Mod of sellena 3] (Eterna round: R97, puzzle: Sensor, turn-off variant 1) | 21.4 | – | 20.4 | – | – | –
18 | UCUUAUUGCAAGGAUAUGCAAAUUAUUUUUUAAGCAGAAGGUGCAACAUGAGGAUCACCCAUGUUUCCGGGAAA [JR_E6_Sub039] (puzzle: Exclusion 6) | – | – | – | 23.9 | – | –

Row | Sequence | apparent KD of MS2 coat protein (input ligand: FMN 200 uM) [nM] | apparent KD of MS2 coat protein [1] [nM] | apparent KD of MS2 coat protein (input ligand: none) [nM] | apparent KD of MS2 coat protein [2] [nM] | apparent KD of MS2 coat protein [3] [nM] | apparent KD of MS2 coat protein [4] [nM]
19 | CAGUACUGAGGAUAUACAUGAGGAUCACCCAUGUGAUGUAGUGCACGCGUACGUGUACGUAGAAGGCAGUACUG [JL 3.27 m10] (Eterna round: R97, puzzle: Exclusion 3) | 49.3 | – | 17.1 | – | – | –
20 | CUAGCGUAUGUAGGAUAUCGGACUGUUUCAGUCUGAGAAGGACAUGAGGAUCACCCAUGUAUUGCUACGUGAGUAGCUCGCUAG [JL ENG1 3.93] (Eterna round: R96, puzzle: Exclusion NG 1) | 30.1 | 16.8 | 19.6 | – | – | –
21 | GGUUUGUAAGGAUAUCCGAGAGGUAGGUGAGGGUUAGGGAAGGAGAAGGUACAUGAGGAUCACCCAUGUAAGGG [AK-MS2ROC-r4-exclusion4-10] (Eterna round: R97, puzzle: Exclusion 4) | 127 | – | 102 | – | – | –
22 | AGUACUAACACGAAAGUGUUAGUACUAUAAGCUUGUGUUACAUGAGGAUCACCCAUGUCCUCAUAAGCUCGUCUUGU [Mat - Sensor v3 - Turn-off var 2 - D104] (puzzle: Sensor v3, turn-off variant 2) | – | – | – | 48.7 | 46.4 | 54.4
23 | AAGGGUGCUUUCGGAACGACAUGAGGAUCACCCAUGUAGACUGAGGAUAUCUACUUCUAAGGACGGGAGAAGGCAGUGUAAUGC [Ex NG3 #69] (Eterna round: R96, puzzle: Exclusion NG 3) | 47.8 | 28.3 | 42.6 | – | – | –
24 | GGUUGGCGAGGAUAUACAUGAGGAUCACCCAUGUGAGAGAAAAAAGUGAGGAAGAAAAGUAGAAGGCGCUGACG [salish99-ex3-champ] (puzzle: Exclusion 3) | – | – | – | 49.3 | 412 | 44.5
25 | AUUGUAGUUGUGAGGAUAUCGUUGAUUUUUUGAAACGAGAAGGCACAUGAGGAUCACCCAUGUUAGUUGUUGGU [JR_BMOE4_Sub056] (puzzle: Brourd's mod of Exclusion 4) | – | – | – | 65.4 | – | –
26 | AUUUUGUGAGGAUAUUAGUAGUAAAUAAAUAAAAUUAUUACUGAGAAGGCACAUGAGGAUCACCCAUGUUCCUA [Salish 062 v7] (Eterna round: R97, puzzle: Exclusion 4) | 193 | – | 19 | – | – | –
27 | CUGAGCAGACGGAGAUCCAACAUGAGGAUCACCCAUGUCUCAAAAGCUUUUUGCUUGUCUUACUCUCCUCUGUUCUC [Atenve] (puzzle: Sensor v3, turn-off variant 1) | – | – | – | 103 | 13.9 | 11.3
28 | GUACUGAAGCUUUGCUUUAAUCGUACAUGAGGAUCACCCAUGUAGGAUAUGGUAGGCAAAGCUUACCAGAAGGACAGAGUGAUC [Mat - Exclusion NG 3 - Mod of JL - D67] (Eterna round: R96, puzzle: Exclusion NG 3) | 103 | 92.1 | 93.1 | – | – | –
29 | GAUCAUGCAGGAUAUACAUGGAACAUGUAAUCAUGAAUUUCACAUGAGGAUCACCCAUGUAGAAGGGCAUGAUC [Omei Ex2 A14] (Eterna round: R97, puzzle: Exclusion 2) | 151 | – | 2740 | – | – | –
30 | UAUUUGUAAGGAUAUCUCGUCAUGGAGGAAACUCCAUGACGAGAGAAGGUACAUGAGGAUCACCCAUGUCUAUU [Mod of Fisker 23 - Jieux - Exclusion 4] (Eterna round: R97, puzzle: Exclusion 4) | 26.2 | – | 18.6 | – | – | –
31 | GUGAUAUAGUUAGUGGCCUACAUGAGGAUCACCCAUGUGAGGGAAAUGUUGAGGCGAAAGUUUUUUGCUCGUCUUUA [JR_SV3TOV1_Sub038] (puzzle: Sensor v3, turn-off variant 1) | – | – | – | 38.6 | 18 | 19.1
32 | AAAAGCCAAGGAUAUACAUGAGGAUCACCCAUGUAAGAAAUGGGCGCUACCGUUCCGUGUAGAAGGUGGGAAAA [Inuserce] (puzzle: Exclusion 3) | – | – | – | 26 | – | –
33 | AACCCAAUGGCAGGAUAUAGUAGACGACUCGGUCUAGAAGGGCCGCACAUGACAUGAGGAUCACCCAUGUUUCAUCUGAGGGAC [Eternabot solution 27] (Eterna round: R96, puzzle: Exclusion NG 1) | 14.1 | 14 | 19.4 | – | – | –
34 | UUUAUGUCAGGAUAUACAUGAGGAUCACCCAUGUAUAUCUUAAGGUAUACAUGGGAAUGUAGAAGGGACCUCCU [Omei Ex3 Pseudoloop 7] (Eterna round: R97, puzzle: Exclusion 3) | 40.7 | – | 41.3 | – | – | –
35 | CAAAGUUGGUAAGGAUAUCCCACAUUAUUCUGACCCGUGCAAGCUACAUGAGGAUCACCCAUGUGGGAGAAGGUGCGUUAAAGU [Design 2] (Eterna round: R96, puzzle: Exclusion NG 2) | 261 | 164 | 196 | – | – | –
